± gives the uncertainty stated by the source.
Assay: protein stability index of a GFP-peptide fusion (yeast GPS) (PSI 1-4); higher = more stable; sorted into four equal gates, so the index is relative within each strain
In short: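 The protein stability index combines read frequencies across sorting gates, each weighted by its gate number and then summed. To obtain those frequencies, a pooled yeast library of GFP fusions to tiled 17-residue yeast protein peptides, on a plasmid also expressing Cherry, was grown to mid-log phase in leucine-free medium. The cells were sorted into four equal gates by GFP/Cherry ratio before plasmid amplification by PCR and Illumina sequencing.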

MEVLGIEAGRAALYKEV [RPO21]
protein stability index (doa10∆): 2.55 ± 0.14
protein stability index (pdr5∆): 2.9 ± 0.2
protein stability index (san1∆): 2.4 ± 0.16
protein stability index (ubr1∆): 2.76 ± 0.12

YDLNFKLRETLVKIDDL [SMC1]
protein stability index (doa10∆): 3.05 ± 0.15
protein stability index (pdr5∆): 3.13 ± 0.13
protein stability index (san1∆): 3.01 ± 0.13
protein stability index (ubr1∆): 2.68 ± 0.14

VMYNGHTGKKLMAQIFF [RPB2]
protein stability index (pdr5∆): 2.31 ± 0.16
protein stability index (san1∆): 3.08 ± 0.14
protein stability index (ubr1∆): 1.27 ± 0.045

LVDLKKELAELKVQKLS [RPL35A]
protein stability index (doa10∆): 1.2 ± 0.066
protein stability index (pdr5∆): 1.59 ± 0.097
protein stability index (san1∆): 1.46 ± 0.12
protein stability index (ubr1∆): 1.68 ± 0.085

FANNLKSAISNNFRESD [SIR4]
protein stability index (doa10∆): 2.55 ± 0.053
protein stability index (pdr5∆): 2.59 ± 0.048
protein stability index (san1∆): 2.56 ± 0.044
protein stability index (ubr1∆): 2.41 ± 0.042

GRKHVAALRTVKSLVDN [RPL9A]
protein stability index (doa10∆): 2.99 ± 0.12
protein stability index (pdr5∆): 3.17 ± 0.079
protein stability index (san1∆): 2.91 ± 0.092
protein stability index (ubr1∆): 2.96 ± 0.071

KDQRATTPYMTKYERAR [RPO26]
protein stability index (doa10∆): 2.56 ± 0.057
protein stability index (pdr5∆): 3.01 ± 0.051
protein stability index (san1∆): 2.44 ± 0.11
protein stability index (ubr1∆): 3.04 ± 0.048

QNSYADKVTSQAVNNLI [RPP1]
protein stability index (doa10∆): 1.82 ± 0.047
protein stability index (pdr5∆): 1.93 ± 0.09
protein stability index (san1∆): 1.68 ± 0.099
protein stability index (ubr1∆): 2.11 ± 0.068

PLHSGKTSLMDLLVIDS [SNU114]
protein stability index (doa10∆): 2.48 ± 0.068
protein stability index (pdr5∆): 2.75 ± 0.085
protein stability index (san1∆): 2.81 ± 0.1
protein stability index (ubr1∆): 2.47 ± 0.048

GFEQVKIALGSPIVNVL [RRI2]
protein stability index (doa10∆): 1.56 ± 0.15
protein stability index (pdr5∆): 2.78 ± 0.2
protein stability index (san1∆): 1.48 ± 0.25
protein stability index (ubr1∆): 2.52 ± 0.12

SKKNRPTLQVGDLVYAR [RRP40]
protein stability index (doa10∆): 2.36 ± 0.1
protein stability index (pdr5∆): 2.48 ± 0.09
protein stability index (san1∆): 1.87 ± 0.12
protein stability index (ubr1∆): 2.46 ± 0.043

LFQRQKLHEFYLLISKE [IRR1]
protein stability index (doa10∆): 2.69 ± 0.12
protein stability index (pdr5∆): 2.97 ± 0.076
protein stability index (san1∆): 2.63 ± 0.061
protein stability index (ubr1∆): 2.87 ± 0.12

EGNAQLVAIFGGQGNTD [FAS1]
protein stability index (doa10∆): 1.45 ± 0.067
protein stability index (pdr5∆): 1.94 ± 0.094
protein stability index (san1∆): 2.13 ± 0.13
protein stability index (ubr1∆): 1.05 ± 0.091

VRVQRQKKILSIRLKVP [RPL8A]
protein stability index (doa10∆): 1.49 ± 0.032
protein stability index (pdr5∆): 1.28 ± 0.032
protein stability index (san1∆): 1.26 ± 0.054
protein stability index (ubr1∆): 1.25 ± 0.025

AKRIRVSHHATTFTHCE [RPB2]
protein stability index (doa10∆): 3.07 ± 0.07
protein stability index (pdr5∆): 3.15 ± 0.074
protein stability index (san1∆): 2.48 ± 0.09
protein stability index (ubr1∆): 2.88 ± 0.066

EQQPEQPQETEEHHEEE [RPT4]
protein stability index (doa10∆): 3.41 ± 0.084
protein stability index (pdr5∆): 3.28 ± 0.12
protein stability index (san1∆): 3.2 ± 0.12
protein stability index (ubr1∆): 3.44 ± 0.1

YSLHQIRKDPNNLSNQL [CSE2]
protein stability index (doa10∆): 2.54 ± 0.076
protein stability index (pdr5∆): 2.66 ± 0.071
protein stability index (san1∆): 2.65 ± 0.054
protein stability index (ubr1∆): 2.77 ± 0.04

FPLCVHLVSNELEQLSS [RPL10]
protein stability index (doa10∆): 2.7 ± 0.079
protein stability index (pdr5∆): 2.71 ± 0.065
protein stability index (san1∆): 2.52 ± 0.089
protein stability index (ubr1∆): 2.44 ± 0.049

FGTGKRLAKKVARRNAD [RPS24A]
protein stability index (doa10∆): 3.46 ± 0.062
protein stability index (pdr5∆): 3.31 ± 0.055
protein stability index (san1∆): 3.1 ± 0.04
protein stability index (ubr1∆): 3.31 ± 0.039

VKGKNCVVLGCERRSTL [PRE6]
protein stability index (san1∆): 2.84 ± 0.23

TVAVMSYSGYDIEDALV [RET1]
protein stability index (doa10∆): 2.7 ± 0.16
protein stability index (pdr5∆): 2.15 ± 0.11
protein stability index (san1∆): 1.97 ± 0.16
protein stability index (ubr1∆): 2.83 ± 0.072

IREIDVAGGKKALAIFV [RPS7A]
protein stability index (doa10∆): 2.29 ± 0.089
protein stability index (pdr5∆): 1.75 ± 0.11
protein stability index (san1∆): 1.49 ± 0.17
protein stability index (ubr1∆): 1.77 ± 0.066

ITHYAVRGGNIEIMGIL [RRI1]
protein stability index (doa10∆): 2.85 ± 0.1
protein stability index (pdr5∆): 2.54 ± 0.097
protein stability index (san1∆): 2.79 ± 0.095
protein stability index (ubr1∆): 2.25 ± 0.13

QIQKNVDLLQFPWLNAI [POP3]
protein stability index (doa10∆): 2.29 ± 0.07
protein stability index (pdr5∆): 2.09 ± 0.073
protein stability index (san1∆): 3.32 ± 0.11
protein stability index (ubr1∆): 2.35 ± 0.06

VHPFHVLRINKMLSCAG [RPL10]
protein stability index (doa10∆): 1.11 ± 0.086
protein stability index (pdr5∆): 1.21 ± 0.075
protein stability index (san1∆): 1.21 ± 0.092
protein stability index (ubr1∆): 1.05 ± 0.06

GSSKPAFSFGAKPDEKK [YJL041W/NSP1]
protein stability index (doa10∆): 3.19 ± 0.17
protein stability index (pdr5∆): 3.18 ± 0.14
protein stability index (ubr1∆): 3.29 ± 0.17

VYSKQATFLLTDIKDTL [MCD1]
protein stability index (doa10∆): 2.27 ± 0.062
protein stability index (pdr5∆): 2.3 ± 0.076
protein stability index (san1∆): 2.23 ± 0.086
protein stability index (ubr1∆): 2.3 ± 0.057

QTAVTCESCSTILCTPT [RPS27A]
protein stability index (doa10∆): 1.93 ± 0.04
protein stability index (pdr5∆): 2.05 ± 0.044
protein stability index (san1∆): 1.91 ± 0.056
protein stability index (ubr1∆): 1.82 ± 0.04

IESNKLAGVLYESRNVA [RRP6]
protein stability index (doa10∆): 2.93 ± 0.062
protein stability index (pdr5∆): 3.11 ± 0.074
protein stability index (san1∆): 3.07 ± 0.1
protein stability index (ubr1∆): 3.08 ± 0.062

KYKSNTNNMEKIIEDLR [SMC2]
protein stability index (doa10∆): 3.21 ± 0.061
protein stability index (pdr5∆): 3.23 ± 0.055
protein stability index (san1∆): 3.23 ± 0.034
protein stability index (ubr1∆): 3.2 ± 0.034

LIETVRQMKDVNAPLPT [RPN2]
protein stability index (doa10∆): 3.12 ± 0.055
protein stability index (pdr5∆): 3.12 ± 0.051
protein stability index (san1∆): 2.9 ± 0.05
protein stability index (ubr1∆): 3.04 ± 0.036

DDYKDLTCSLYELYINK [IRR1]
protein stability index (doa10∆): 2.74 ± 0.084
protein stability index (pdr5∆): 2.75 ± 0.12
protein stability index (san1∆): 3.16 ± 0.056
protein stability index (ubr1∆): 2.94 ± 0.079

KLTVCFDDILKVGAEMM [MED2]
protein stability index (doa10∆): 1.97 ± 0.07
protein stability index (pdr5∆): 1.95 ± 0.06
protein stability index (san1∆): 1.89 ± 0.11
protein stability index (ubr1∆): 2 ± 0.041

MQANKLDSQETPSTEES [SWI3]
protein stability index (doa10∆): 1.79 ± 0.096
protein stability index (pdr5∆): 2.35 ± 0.073
protein stability index (san1∆): 2.39 ± 0.11
protein stability index (ubr1∆): 2.36 ± 0.056

AGANDTSNNETNNGNDD [GRR1]
protein stability index (doa10∆): 2.8 ± 0.048
protein stability index (pdr5∆): 2.23 ± 0.066
protein stability index (san1∆): 2.87 ± 0.072
protein stability index (ubr1∆): 2.89 ± 0.059

IGKDTFVTRKSRKRAKK [PRP8]
protein stability index (doa10∆): 3.01 ± 0.092
protein stability index (pdr5∆): 2.84 ± 0.096
protein stability index (san1∆): 2.87 ± 0.078
protein stability index (ubr1∆): 3.25 ± 0.049

INSSNEALVQAFAFCIP [YCG1]
protein stability index (doa10∆): 2.18 ± 0.055
protein stability index (pdr5∆): 2.31 ± 0.051
protein stability index (san1∆): 2.49 ± 0.059
protein stability index (ubr1∆): 2.09 ± 0.041

KSSDSNDSNPSFSFSIP [YLR335W/NUP2]
protein stability index (doa10∆): 2.62 ± 0.046
protein stability index (pdr5∆): 2.53 ± 0.048
protein stability index (san1∆): 2.31 ± 0.058
protein stability index (ubr1∆): 2.81 ± 0.034

DTDKLPIKNRTSKSFSK [SIN4]
protein stability index (doa10∆): 2.83 ± 0.1
protein stability index (pdr5∆): 2.85 ± 0.067
protein stability index (san1∆): 2.61 ± 0.11
protein stability index (ubr1∆): 2.92 ± 0.068

DRKIEFPPPSVAARAEI [RPT6]
protein stability index (doa10∆): 2.02 ± 0.094
protein stability index (pdr5∆): 2.36 ± 0.11
protein stability index (san1∆): 1.83 ± 0.096
protein stability index (ubr1∆): 1.39 ± 0.052

— the supplement of paper PMC9732359
